# Assay results: publication PMC4344327, “Region-Specific Activation of oskar mRNA Translation by Inhibition of Bruno-Mediated Repression” (PLoS Genetics, 2015)
# T1: GST::Bru (full-length Bruno fused to GST) (Drosophila, UniProt O02374 1-604)
# T1 construct: Bruno (Bru; encoded by the aret gene), Drosophila; full-length bru cDNA subcloned into pGEX-2TK; Vector pGEX-2TK; source: E. coli CodonPlus, extract, immobilized on Glutathione Sepharose 4B
# T1 sequence (looked up): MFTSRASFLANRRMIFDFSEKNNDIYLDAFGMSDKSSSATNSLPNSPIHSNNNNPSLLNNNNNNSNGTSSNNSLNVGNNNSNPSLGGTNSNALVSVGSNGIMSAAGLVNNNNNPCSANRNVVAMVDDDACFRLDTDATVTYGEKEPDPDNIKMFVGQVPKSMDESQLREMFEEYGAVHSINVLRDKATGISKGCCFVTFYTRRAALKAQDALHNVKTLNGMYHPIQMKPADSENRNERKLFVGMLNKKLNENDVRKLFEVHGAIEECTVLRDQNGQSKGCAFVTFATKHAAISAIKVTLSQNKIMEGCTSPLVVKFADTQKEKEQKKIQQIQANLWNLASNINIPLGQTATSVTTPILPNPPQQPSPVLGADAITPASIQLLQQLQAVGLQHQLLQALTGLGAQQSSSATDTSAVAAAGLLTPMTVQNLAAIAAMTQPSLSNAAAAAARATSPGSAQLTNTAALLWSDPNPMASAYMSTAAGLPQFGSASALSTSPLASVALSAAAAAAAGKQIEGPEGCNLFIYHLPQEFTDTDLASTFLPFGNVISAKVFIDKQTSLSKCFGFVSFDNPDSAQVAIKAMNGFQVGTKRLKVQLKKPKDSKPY
# B1: His6::Bru Δ334–416 (natural protein, Drosophila, UniProt O02374 1-604, looked up)
# chain: MFTSRASFLANRRMIFDFSEKNNDIYLDAFGMSDKSSSATNSLPNSPIHSNNNNPSLLNNNNNNSNGTSSNNSLNVGNNNSNPSLGGTNSNALVSVGSNGIMSAAGLVNNNNNPCSANRNVVAMVDDDACFRLDTDATVTYGEKEPDPDNIKMFVGQVPKSMDESQLREMFEEYGAVHSINVLRDKATGISKGCCFVTFYTRRAALKAQDALHNVKTLNGMYHPIQMKPADSENRNERKLFVGMLNKKLNENDVRKLFEVHGAIEECTVLRDQNGQSKGCAFVTFATKHAAISAIKVTLSQNKIMEGCTSPLVVKFADTQKEKEQKKIQQIQAAAGLLTPMTVQNLAAIAAMTQPSLSNAAAAAARATSPGSAQLTNTAALLWSDPNPMASAYMSTAAGLPQFGSASALSTSPLASVALSAAAAAAAGKQIEGPEGCNLFIYHLPQEFTDTDLASTFLPFGNVISAKVFIDKQTSLSKCFGFVSFDNPDSAQVAIKAMNGFQVGTKRLKVQLKKPKDSKPY
# notes: also called Bru lacking most of the linker domain between RRMs 2 and 3; source: E. coli, purified (Ni-NTA); not shown: His6, N-terminal, kept
# B2: His6::Bru (full-length Bruno, Bru+) (natural protein, Drosophila, UniProt O02374 1-604, looked up)
# chain: T1 sequence (looked up)
# notes: Bruno (Bru; encoded by the aret gene), Drosophila; full-length Bru in pET-15b; Vector pET-15b; The tethered transgene proteins carry RRM2/RRM3 point mutations; source: E. coli, purified (Ni-NTA); not shown: His6, N-terminal, kept
# B3: His6::Bru 1–146 (isolated amino-terminal domain) (domain or fragment, Drosophila, UniProt O02374 1-146, looked up)
# chain: MFTSRASFLANRRMIFDFSEKNNDIYLDAFGMSDKSSSATNSLPNSPIHSNNNNPSLLNNNNNNSNGTSSNNSLNVGNNNSNPSLGGTNSNALVSVGSNGIMSAAGLVNNNNNPCSANRNVVAMVDDDACFRLDTDATVTYGEKEP
# notes: also called Bru amino-terminal domain; source: E. coli, purified (Ni-NTA); not shown: His6, N-terminal, kept
# Target: T1, GST::Bru (full-length Bruno fused to …)
# Test: pull-down; GST::Bru, GST::Cup or GST immobilized on Glutathione Sepharose 4B from E. coli extract and washed; ~100 ng N-terminally His6-tagged Bru protein in 80 μl binding buffer (50mM Tris-Cl pH7.5, 150mM NaCl, 10% glycerol, 1mM DTT, 0.1% IGEPAL-CA-630), 2–3 hr at room temperature; Western blot with anti-His antibody
# Details: both partners purified
row,Binder,binding result
1,B1,binds
2,B2,binds
3,B3,binds
